By Kd is commonly meant a measure of binding affinity in units of concentration. A low value points to a tighter complex. One may read the koff as a measure of how fast the partners let go of each other. High values mean fast dissociation, low ones slow dissociation. For orientation: kon means a measure of how fast the partners come together.

Results on nine molecules are retold here after EP4538285A1 (Chineo Medical Technology Co., Ltd., dated 2025).

The chains are these.
B1: Camrelizumab (antibody, V domains shown)
VH: EVQLVESGGGLVQPGGSLRLSCAASGFTFSSYMMSWVRQAPGKGLEWVATISGGGANTYYPDSVKGRFTISRDNAKNSLYLQMNSLRAEDTAVYYCARQLYYFDYWGQGTTVTVSS
VL: DIQMTQSPSSLSASVGDRVTITCLASQTIGTWLTWYQQKPGKAPKLLIYTATSLADGVPSRFSGSGSGTDFTLTISSLQPEDFATYYCQQVYSIPWTFGGGTKVEIK
B2: Sintilimab (antibody, V domains shown)
VH: QVQLVQSGAEVKKPGSSVKVSCKASGGTFSSYAISWVRQAPGQGLEWMGLIIPMFDTAGYAQKFQGRVAITVDESTSTAYMELSSLRSEDTAVYYCARAEHSSTGTFDYWGQGTLVTVSS
VL: DIQMTQSPSSVSASVGDRVTITCRASQGISSWLAWYQQKPGKAPKLLISAASSLQSGVPSRFSGSGSGTDFTLTISSLQPEDFATYYCQQANHLPFTFGGGTKVEIK
B3: Seq No.7-RFc (PD-1 variant SEQ ID NO: 7 fused to rabbit IgG Fc) (Fc fusion)
chain: PGWFLDSPDRPWNPPTFSPALLVVTEGDNATFTCSFSNTSESFVLNWYRMSPSNQTDKLAAFPEDRINRSQDCRFRVTQLPNGRDFHMSVVRARRNDSGTYLCGAISLSTPVWIKESLRAELRVTERRAEVPTAH
notes: Signal peptide 1-20 left out; also called variant 6; not shown: rabbit IgG Fc (RFc) of vector pcDNA3.4-RFc
B4: Toripalimab (antibody, V domains shown)
VH: QGQLVQSGAEVKKPGASVKVSCKASGYTFTDYEMHWVRQAPIHGLEWIGVIESETGGTAYNQKFKGRVTITADKSTSTAYMELSSLRSEDTAVYYCAREGITTVATTYYWYFDVWGQGTTVTVSS
VL: DVVMTQSPLSLPVTLGQPASISCRSSQSIVHSNGNTYLEWYLQKPGQSPQLLIYKVSNRFSGVPDRFSGSGSGTDFTLKISRVEAEDVGVYYCFQGSHVPLTFGQGTKLEIKR
B5: Seq No.4-RFc (PD-1 variant SEQ ID NO: 4 fused to rabbit IgG Fc) (Fc fusion)
chain: B3 chain with E64W, D65M, R66F, I67C, N68F, R69P, S70G
notes: Signal peptide 1-20 left out; also called variant 3; not shown: rabbit IgG Fc (RFc) of vector pcDNA3.4-RFc
B6: Seq No.2-RFc (PD-1 variant SEQ ID NO: 2 fused to rabbit IgG Fc) (Fc fusion)
chain: B3 chain with I67S, N68Q, R69P, S70G
notes: signal peptide 1-20 left out; also called variant 1; not shown: rabbit IgG Fc (RFc) of vector pcDNA3.4-RFc
B7: Seq No.5-RFc (PD-1 variant SEQ ID NO: 5 fused to rabbit IgG Fc) (Fc fusion)
chain: B3 chain with R66F, I67R, R69C, S70T
notes: Signal peptide 1-20 left out; also called variant 4; not shown: rabbit IgG Fc (RFc) of vector pcDNA3.4-RFc
B8: Seq No.6-RFc (PD-1 variant SEQ ID NO: 6 fused to rabbit IgG Fc) (Fc fusion)
chain: B3 chain with R66F, I67F, N68T, R69V
notes: Signal peptide 1-20 left out; also called variant 5; 56#-16; not shown: rabbit IgG Fc (RFc) of vector pcDNA3.4-RFc
B9: Seq No.3-RFc (PD-1 variant SEQ ID NO: 3 fused to rabbit IgG Fc) (Fc fusion)
chain: B3 chain with E64F, D65L, R66F, I67N, N68L, R69P, S70G
notes: Signal peptide 1-20 left out; also called variant 2; not shown: rabbit IgG Fc (RFc) of vector pcDNA3.4-RFc

The target in assay [1] is T1, Seq No.1-RFc (wild-type PD-1 fused to rabbit IgG Fc) (human; rabbit, UniProt Q15116 21-155).
T1 construct: also called PD1-RFc; not shown: rabbit IgG Fc (RFc) of vector pcDNA3.4-RFc
The assay is described as follows: SPR, Biacore T200; PD1-RFc mobile phase, antibody stationary phase. In general terms: Surface plasmon resonance follows binding to a sensor surface in real time, without labels.

The next assay concerns the target T2, Tilelizumab.
T2 construct: Biotin-labelled in flow cytometry; also called Tevimbra; Tislelizumab
The description is as above.

The target in the assay “Toripalimab” is B4. The assay is described as follows: SPR, Biacore T200.

Numbering of substitutions follows the chain as printed.

In assay [1], B1 gave a Kd of 229 pM, a koff of 0.000389 s⁻¹ and a kon of 1.7e+06 M⁻¹ s⁻¹.
In the case of B2, in assay [1], the Kd was 1.41 pM, the koff stood at 5.11e-06 s⁻¹ and the kon was 3.62e+06 M⁻¹ s⁻¹.
For B3, in the assay with Tilelizumab, the equilibrium dissociation constant (Kd) is 49.2 pM, the koff worked out at 0.000109 s⁻¹ and the kon was determined as 2.21e+06 M⁻¹ s⁻¹.
In assay [1], B4 came in with a Kd of 178 pM, a koff of 0.00115 s⁻¹ and a kon of 6.47e+06 M⁻¹ s⁻¹.
B5: in the assay with Tilelizumab, the Kd was 2940 pM, the koff came to 0.00203 s⁻¹ and the kon is 691000 M⁻¹ s⁻¹.
Consider B6, for which, in the assay with Toripalimab, the Kd turned out to be 395 pM. In the assay with Tilelizumab, this molecule gave a Kd of 85 pM, a koff of 0.000174 s⁻¹ and a kon of 2.05e+06 M⁻¹ s⁻¹.
On to B7, for which, in the assay with Tilelizumab, binding was put at a Kd of 567 pM, the koff was 0.0003 s⁻¹ and the kon is 530000 M⁻¹ s⁻¹.
For B8 the same measures were 315 pM, 0.000836 s⁻¹ and 2.66e+06 M⁻¹ s⁻¹.
For B9 the same measures were 1780 pM, 0.00105 s⁻¹ and 588000 M⁻¹ s⁻¹.
